From US20020176853A1

Biological target: mouse pro-IL-1β (mouse) (UniProt P10749)
Experiment: cell-based or functional assay

UniProt P10749, sequence (P10749 whole entry): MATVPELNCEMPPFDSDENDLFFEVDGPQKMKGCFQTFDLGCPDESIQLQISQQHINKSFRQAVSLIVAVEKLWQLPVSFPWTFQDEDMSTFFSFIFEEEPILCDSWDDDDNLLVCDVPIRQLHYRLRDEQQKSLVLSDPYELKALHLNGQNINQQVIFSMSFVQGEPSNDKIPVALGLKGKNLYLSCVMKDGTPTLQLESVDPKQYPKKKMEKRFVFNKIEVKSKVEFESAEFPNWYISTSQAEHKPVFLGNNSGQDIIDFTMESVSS

In the case of “pro-caspase-1 (full-length, wild-type) (from UniProt P29466 1-404) (enzyme)”, the secretion of mature IL-1β into the culture medium (ELISA), COS-7 cells is reported as 80 to 250 pg/mL.
